Assays:
[1] = target: human insulin receptor, isoform B (holoreceptor) (human) (UniProt P06213); assay: radioligand binding; scintillation proximity assay (SPA): competition of [125I]TyrA14-labelled insulin binding to solubilized holoreceptor, with IR-specific antibody 83-7; analogues taken directly from yeast supernatant after conversion; four-parameter logistic model; affinity relative to human insulin within the same plate [IC50(insulin)/IC50(analogue) x 100%]; near physiological pH
[2] = target: human insulin receptor, isoform A (holoreceptor) (human) (UniProt P06213); assay: as above
[3] = target: human insulin receptor, isoform B (holoreceptor) (human) (UniProt P06213); assay: radioligand binding; scintillation proximity assay (SPA): competition of [125I]TyrA14-labelled insulin binding to solubilized holoreceptor, with IR-specific antibody 83-7; purified ligand (human insulin standard, tracer, purified unglycosylated [A8H, B25N]); near physiological pH

Row | Substance | relative affinity (IC50 insulin/IC50 analogue x 100%) (% of human insulin) [1] | relative affinity (IC50 insulin/IC50 analogue x 100%) (% of human insulin) [2] | fold difference in relative binding potency, IR-B over IR-A [3]
1 | [A8H, B25A, B27E] desB30 insulin analogue (ligand) | 24 | 10 | –
2 | [A8H, B25H, B27D] desB30 insulin analogue (ligand) | 82 | 43 | –
3 | [A8H, B25H, B27E] desB30 insulin analogue (ligand) | 140 | 67 | –
4 | [A8H, B25N, B27D] desB30 insulin analogue (ligand) | 38 | 10 | –
5 | [A8H, B25N, B27E] desB30 insulin analogue (ligand) | 57 | 15 | –
6 | [A8H, B25N] desB30 insulin analogue (ligand) | 44 | 22 | 2 fold
7 | [A8H, B25Y, B27E] desB30 insulin analogue (ligand) | 459 | 714 | –
8 | [A8H] desB30 insulin analogue (ligand) | 308 | 308 | –
9 | [B25N] desB30 insulin analogue (ligand) | 8 | 4 | –

— PMC3098868
